# Experimental data as given in the DeepSol protein solubility set.
# Experiment: soluble on expression in E. coli; label from the status in PepcDB or PDB records
row,Sequence,soluble on expression in E. coli
1,MSEEIISKKPSKPQASRKGKRAWRKNIDIQEIEQNLQDKRDEEIVLGKEVTDDFVIDDTPSSKSGKLPKKLKTKEILTNKSKIPALTNQRHQKKGENTIQGVKKTDLLRLIQLNGGKFKSEDKYVNRLEQDGIVNGSSQDLWDDTDNNEKKKIPDFMKSTAEVTKASVVPKTLKVNPIKITSNELTDKKIHAGKSYNPSLESWKELINQEYDIEYKRELTRQQIEEHRNKIKELMITLDDNMLSDSDDDEDDEDNDKVEEEEQLNANGEKDYSLSINKPNKIKIKTKTKRNKELKHKERVKLEQEIKDLKKQLKDLSNLDEILEKQAVKDQSQPNEKKRKRREKLFKYSLVETPLEVKLSDELSGNLKNLKPEGNLYYDQMLSLQSSGKIESRVPVNKKRKYTKKITEKWTYKDFK,not soluble
2,MSEEVIKFTSPRKQVKEEFKLIDTQKIADVRIQWFGKFTKNREKIMFCWKFFPGDKLQNEGIDFLVGHIKAYPHPTYNDFEPFEFDFNVNGAEHKETREYEYLTKNDWCCATYECELTPFRLYGNMFGASTKHDGVLVVEKKKLNVSKAFLSYHSDFFSDLFSREAHSKDIPIEGVTYFEFGLLISCIHPDHTVFPNDETVSKLLSLADRFSMRAVYRMVEHHLLHSSSNMGIREVIKTADQYGMKELMEKSISRITSTEKVMDLIQSAEFPELSAETKAKLMDCMAKMMR,not soluble
3,MSEFSPLRRKILLGGAATAGLSLFPSFSFASQFAETPRKLALSNLHTGEELKTEYFNGRQYQSAELHKLNHLCRDFRRNESIEMDKRLFDQLSAIQNVIGCDTQVQIISGYRSPATNEMLRGKSHGGVAKKSLHMLGKAMDFRLEGVPLAEVRKAALSLKAGGVGYYPGSNFVHIDTGRVRFW,not soluble
4,MSEISDAEKVRIASDFIKHAPPGEFNEVFNSVRMLLENDDLLKNKCVNAIAQYNVGQFVPVKLDGVAKQTLITPYNDLGNGRFYDEVSKKSFKYDHVRKEAADLQPHPAESGITEQWRQALQTQLDIYIDDHYAKSGTGVVFARNGVFTICIESHQFQPKNFCNGRWRSEWNVPVGDGKSGSQEMKGKILSQVHYYEDGNVQLFSEKEPVLKVNVSADFDKTAKEIIHAISEEETIYQNAVQENYANMSDTTFKALRRQLPVTRAKMDWNKAQTYRIGQEMK,soluble
5,MSEKIRVLLYYKYVSIENAQEYAAKHLEFCKSIGLKGRILIADEGINGTVSGDYETTQKYMDWVHSDERFADLWFKIDEENQQAFRKMFVRYKKEIVHLGLEDNNFDSDINPLETTGEYLNPKQFKEALLDEDTVVLDTRNDYEYDLGHFRGAIRPDIRNFRELPQWVRDNKDKFMEKRVVVYCTGGVRCEKFSGWMVREGFKDVGQLHGGIATYGKDPEVQGELWDGAMYVFDDRISVPINHVNPTVISKDYFDGTPCERYVNCANPFCNKQIFASEENETKYVRGCSPECRAHERNRYVQENGLSRQEWAERLEAIGESLPEFVGALEHHHHHH,soluble
6,MSEKKSELVGRHKRVAYMNTDATGSSPKFERMTNFTTMTNGKNPKEYSRQYVDEIAERADVVGYAPAIEYSFDRYTNNPVHEKIATIHDGEKLGDDAHVEVVVVDFFKKSDKGDKCYATKRTYAVIPDSDGDGTDALVYSGSLKSVSDIEEGYVTETDFTSKTVTYAKGDYAATELEHHHHHH,soluble
7,MSEKPIDKVFNRILVGVDDSADAQLAFRYAVRRAVKDNATLIITSILENDEMNVYQALTKDYVHGERYELVEHLKKYRDIAAKAGVKDIKEIVDEGNAGETIVKNVIPAVKADLLIIGSLSKKGISKYFGSQAAYMAKYAPISVLIIR,not soluble
8,MSEKRLPLKPVLRIDFPPGERLGHGKVELMQLIAETGSISAAGRAMDMSYRRAWLLVDALNHMFRQPVICSQRGGKQGGGAALTVFGAELLERYRGMEERMNEALREDIDWLEANRNPQDALNRDREPPTL,soluble
9,MSEKRLTMKETIRRKALSLGFCAVGFAAADTLNEAMKEYRAMIDEGRHGEMGYLETGLEARANPELLLPGVKSVLSAALPWPAPAKPGAISGYAVIPDYHRVVGELLKELLDFIRSICDHPINGQICVDSSPVLEKEWAEAAGIGRTGKNTLLIVPGYGSRVFLGELLLDLELEPDTPLDWNPCGDCTACLDACPTGALNTPGKLDARRCISYLTIELKRDFTDEEAAMTNGWFYGCDHCLDACPHNANIEATGYPGFEQKKELVNLTPEKALELTHSQFRKRFAGTPALRLGLRRLKRNARAAVANKSQSKS,not soluble
10,MSELLTTYRPIKILLQLDPNLGNNSYNGRVKIDYEFTGETSEIKIQTSRDFQWTSVRLATFYDFNEGCPVYASVDCENYVHDAESEILTLPLGNPLTPETTENGFYIELEWTGPINPQGETTGLYAIDESTIEANMKDGNAHKVFPCYEGGVSAKFWLTVITDERTRVETNMDDAGHEEFEGRVKNNFLKEEELTIEDVYIYVTPIIDME,not soluble
11,MSELRILRAVDYPRMPWKNGAGSTEEIARDGGDGLDGFGWRLSIADVGESGGFSGFAGYQRIISVLEGGGMRLRVDGAESAPLRARQAFAFSGDSEVHCTLLDGAIRDFNLIYAPRRHRARLQWLRVEGELDWHGTASTLLLFAQQDGVAISLQGQPRGQLAAHDCLCAEGLQGLQHWRLTAHEPAWVCAVELDSL,soluble
12,MSEQIRLENLTIFMQRRAVKHVYLRVHPPDGRVTLVAPTGMRLEVVRAFVTAKLDWIHKQQAKLQAQVREVPRQFIGGESHTVWGRHYVLQVVEKSAGPCVLMDQQTITLQVRPGSDLFKRAAVMHAWHKSLLHAVVPDLIGKWQDRLGVSVSAYFLQQMKTRWGSCNTRRRHIRLNTDLVRKPQDLLEYVVVHELVHLIEPSHNKRFVGLMDQHYPAWREATAELNQIPLSAIRPRGLEHHHHHH,not soluble
13,MSEQITFATSDFASNPEPRCPCILLLDVSGSMNGRPINELNAGLVTFRDELLADPLALKRVELGIVTFGPVHVEQPFTSAANFFPPILFAQGDTPMGAAITKALDMVEERKREYRANGISYYRPWIFLITDGAPTDEWQAAANKVFRGEEDKRFAFFSIGVQGADMKTLAQISVRQPLPLQGLQFRELFSWLSSSLRSVSRSTPGTEVVLEAPKGWTSV,soluble
14,MSEQNTAKTLPDRNEIEESSTWRLEDIFQTDTEWEKEFQAIKELLPKLTEFKGKLGDSANNLLEALQYEDEISMRLGKLYTYAHMRYDQDTTNSVYQALNDRATNLYSQVSSSTAYIVPEILSISEDTLQTFLKENRDLSVYEHALEEITRQRPHVLSEAEEALLAEASEVMSTSSNTFGMLNNADLKFPSIKGEDGEEVEITHGRYIQFLESDDRRVREDAFKAVYETYGKYKNTFASTLSGAVKRNNFNARVRKYDSARQAALSNNNIPEAVYDQLIESVNDNLHLLHRYIDIRKRALGLDELHMYDLYTPLVPEVKMNVKYEEAQDMLLKSLHVLGDEYVDILKEAYENRWVDVYENKGKRSGAYSSGAYGTNPYILMNWHDNVNNLFTLAHEFGHSVHSYYTRKTQPHVYGDYSIFVAEVASTCNEALLNDYLLKTTEDKKERLYLLNHYLEGFRGTVFRQTMFAEFEHIIHKKVQEGHAVTPDMLTEIYYDLNKKYFGDALVIDEEIGLEWSRIPHFYYNYYVYQYATGFSAATALSKQILEEGQPAVERYINEFLKAGSSDYPIEVLKKAGVDMASPEPVKEALQVFEEKLNELEALLFEEK,not soluble
15,MSERAPLVIIGTGLAGYNLAREWRKLDGETPLLMITADDGRSYSKPMLSTGFSKNKDADGLAMAEPGAMAEQLNARILTHTRVTGIDPGHQRIWIGEEEVRYRDLVLAWGAEPIRVPVEGDAQDALYPINDLEDYARFRQAAAGKRRVLLLGAGLIGCEFANDLSSGGYQLDVVAPCEQVMPGLLHPAAAKAVQAGLEGLGVRFHLGPVLASLKKAGEGLEAHLSDGEVIPCDLVVSAVGLRPRTELAFAAGLAVNRGIVVDRSLRTSHANIYALGDCAEVDGLNLLYVMPLMACARALAQTLAGNPSQVAYGPMPVTVKTPACPLVVSPPPRGMDGQWLVEGSGTDLKVLCRDTAGRVIGYALTGAAVNEKLALNKELPGLMA,soluble
16,MSESGHRKGQAIIVQYSDSSSAYYAYAEGIEDDIIISSRYCPSNEDLLGKWIHLAIDDRSYACDTIQVIDDVFETKVFRGQVEVKINIQFDGRTARGMGMFYNDYFGYICDPNNVLHNTRDGANHNNVWVVRRNAEGLNSRWKVSSEQDDIQHIFPRPENVDKLETVVGVITTHAKLGDFYLVWSPSRPRSTICIAYKFCPSKSNLLGTWAEMRVNRSQRVQRPISVIDALYETRTIFGMTEFRIDFQQTRRFNPDYHLFYHEYFGGILDTLCIIDDVKEGGWYNGWIVYSQHSDASTYWRLAMKQTVLGPYNSPYSCLSPLQQDNNFNEPRNMDPNPPYRTRDRSRSMDRSTRHATRRVDEFTHKRRSPSPEVINVYKEPSRSHANELYDSQKNQYTSHEGHSTSSPTAENRQCHRSRSPEQSNFRPSQTVPGLSSMEQRKAHENVDWGPHRTKNVPPIRSATETPETDHRQDDQSVASTSALYLLDSPGPDPSPKLHLTSEEKELKKLKTKLSRICKLSLSFTANDSVSTPMQLHSLEEYEELIKLTNKFQ,not soluble
17,MSESLTWHDVIGNEKQQAYFQQTLQFVESQRQAGKVIYPPAKDVFNAFRFTEFGDVKVVILGQDPYHGPNQAHGLCFSVLPGVKTPPSLVNIYKELAQDIPGFQIPPHGYLQSWAQQGVLLLNTVLTVEQGMAHSHANTGWETFTDRVIDALNQHRNGLIFLLWGSHAQKKGQMIDRQRHHVLMAPHPSPLSAHRGFLGCRHFSKTNQLLQAQGIAPINWQPELES,soluble
18,MSETIFGKILTGEIPSFKVYEDDYVYAFLDISQVTKGHTLLIPKKASANIFETDEETMKHIGAALPKVANAIKRAFNPDGLNIIQNNGEFADQSVFHIHFHLIPRYENDIDGFGYKWETHEDILDNDAKQQIAEQIQAQF,not soluble
19,MSFAQQKLSELAVSIPGATKIFREYDLDFCCGGSVLLEVAAQQKNLNLAEIEKRLTDLQQSKAENNDKDWTSASYAEMIDHIITRFHNRHREQLPELITLAEKVENIHGDRDDCPIGVVAQLEKIYAELSQHLMKEEQILFPMIKMGNYAMASMPIRVMEMEHDEAGQDVEVIKSLTNNCTPPADACFSWKALYSGINEFIDDLMHHIHLENNILFPRVLNEK,not soluble
20,MSFERSRHDLKLKTSDGMHCVMTNKEIVCLASQFFRQHLKDTTTEFTVGRADSVESIDICLTYMITGIYKKPAQFSPKLASEIFALANQWKVLEPKVLKNSIEKHCCEELQKNYEDIMYVCNMLIIAEDAHFTNVQSCCIATLVFYHVRDFIRIIVNGVESPTEECFSQRREFLKPSLTMQAKRAFAASNEAKCFIKFLPAIGED,not soluble
21,MSFESNQLMPIAALRGGPGTPAADVLTAFALRRKAEGIDVVGVIVPPEDAGSGHQGHGHGEGHGGGHEGCECRSELIDIATGDRYAMHQDLGSGSQACNLNSSSLALAAGAVERAVARKPALVVLSRFGGQEAVRGGLMSAFQAAIAAGVPVACVVTPKAEDVWNDFAQGLSVSLPPEADALEAWWRDHARGRNAALEHHHHHH,not soluble
22,MSFFDELKTSLEEAVEIKQGLKEPARVTRYEIADVKAIREQLNVSQSEMAKALGTSVDTIKSWESKRRNPTGLAAKVLATIKENPAFFRELASH,not soluble
23,MSFFDKVKGALTSGREELTRQVGRYKNKKFMQGTVAVCARIAVASDGVSSEEKQKMIGFLRSSEELKVFDTAEVIEFFNKLVTSFDFDLEIGKGETMKYILALKDQPEAAQLALRVGIAVAKSDGNFDDDEKSAVREIARSLGFDPAEFGLLE,soluble
